In paper PMC12350670, “The characterization of variable new antigen receptors targeting FAP isolated from a novel immunized library” (Communications Biology, 2025) one finds Kd data, which are given here for two molecules.

Test [1] concerns the target T1, recombinant human fibroblast activation protein (human, UniProt Q12884 39-757, biotin (EZ-link NHS-PEG4-biotin)).
T1 construct: also called hFAP; human FAP; source: bought: Acro Biosystems
T1 sequence: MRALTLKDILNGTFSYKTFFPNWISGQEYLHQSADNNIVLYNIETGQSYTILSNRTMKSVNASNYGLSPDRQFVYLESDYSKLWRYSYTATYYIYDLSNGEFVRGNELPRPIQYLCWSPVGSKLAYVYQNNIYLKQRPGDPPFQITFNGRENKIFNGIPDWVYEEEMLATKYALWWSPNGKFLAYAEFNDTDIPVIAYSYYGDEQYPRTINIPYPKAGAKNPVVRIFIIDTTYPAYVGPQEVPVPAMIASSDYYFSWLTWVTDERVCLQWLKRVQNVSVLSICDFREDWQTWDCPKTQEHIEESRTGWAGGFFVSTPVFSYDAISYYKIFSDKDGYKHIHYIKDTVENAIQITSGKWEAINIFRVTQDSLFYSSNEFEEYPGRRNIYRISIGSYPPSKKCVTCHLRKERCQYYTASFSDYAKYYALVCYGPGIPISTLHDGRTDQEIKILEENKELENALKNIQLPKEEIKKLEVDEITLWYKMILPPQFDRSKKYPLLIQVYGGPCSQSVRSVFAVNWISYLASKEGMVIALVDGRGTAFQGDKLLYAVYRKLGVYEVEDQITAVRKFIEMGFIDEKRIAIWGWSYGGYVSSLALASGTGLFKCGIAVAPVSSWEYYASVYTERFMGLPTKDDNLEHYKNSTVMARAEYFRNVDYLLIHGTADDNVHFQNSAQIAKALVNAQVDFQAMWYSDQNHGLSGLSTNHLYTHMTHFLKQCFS
The experiment in a line: BLI; biotinylated bait protein (30 nM) loaded on Octet streptavidin (SAX) biosensors; serially diluted VNAR-Fc (300-0.412 nM) as analyte; PBS with 1% BSA; kinetic analysis with a bivalent analyte model. Conditions: both partners purified. Background: Biolayer interferometry detects binding as a change in optical thickness at a sensor tip.

The target in test [2] is T2, FAP on CWR-R1^FAP cells (human, UniProt Q12884 1-760).
T2 construct: also called CWR-R1-EnzR^FAP
T2 sequence (looked up): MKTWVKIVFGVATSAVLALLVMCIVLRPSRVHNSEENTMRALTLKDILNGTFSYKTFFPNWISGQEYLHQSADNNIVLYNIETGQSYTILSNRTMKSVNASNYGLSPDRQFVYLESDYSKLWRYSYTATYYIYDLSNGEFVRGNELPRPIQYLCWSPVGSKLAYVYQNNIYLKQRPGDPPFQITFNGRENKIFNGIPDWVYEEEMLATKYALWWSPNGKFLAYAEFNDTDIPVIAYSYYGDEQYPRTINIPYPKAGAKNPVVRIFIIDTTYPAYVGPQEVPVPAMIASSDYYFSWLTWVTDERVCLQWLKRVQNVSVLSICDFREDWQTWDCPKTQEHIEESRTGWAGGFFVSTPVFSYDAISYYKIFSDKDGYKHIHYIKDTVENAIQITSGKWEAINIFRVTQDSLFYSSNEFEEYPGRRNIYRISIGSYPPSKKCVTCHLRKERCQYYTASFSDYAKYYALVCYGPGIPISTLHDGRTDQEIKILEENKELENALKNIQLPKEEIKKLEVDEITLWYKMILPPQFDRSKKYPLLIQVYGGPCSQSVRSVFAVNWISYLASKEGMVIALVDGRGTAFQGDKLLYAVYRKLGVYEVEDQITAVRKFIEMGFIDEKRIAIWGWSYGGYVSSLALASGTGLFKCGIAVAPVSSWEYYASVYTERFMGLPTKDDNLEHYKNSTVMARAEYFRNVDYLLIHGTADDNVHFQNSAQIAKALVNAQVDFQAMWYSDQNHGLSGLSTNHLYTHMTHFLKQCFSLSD
Put plainly: flow cytometry on cells; cells incubated with VNAR-Fc (several concentrations, or fixed 100 nM) 1 h on ice, detected with PE-labeled anti-human IgG Fc; KD from logistic fitting of mean fluorescence intensity. Conditions: one partner purified. Background: A flow cytometer gives signals particle by particle.

The target of test [3] is T3, FAP on hPrCSC-44 cells (human (endogenous in hPrCSC-44), UniProt Q12884 1-760).
T3 construct: also called endogenous FAP; source: endogenous, hPrCSC-44 immortalized cancer-associated fibroblast cells, on cells
T3 sequence (looked up): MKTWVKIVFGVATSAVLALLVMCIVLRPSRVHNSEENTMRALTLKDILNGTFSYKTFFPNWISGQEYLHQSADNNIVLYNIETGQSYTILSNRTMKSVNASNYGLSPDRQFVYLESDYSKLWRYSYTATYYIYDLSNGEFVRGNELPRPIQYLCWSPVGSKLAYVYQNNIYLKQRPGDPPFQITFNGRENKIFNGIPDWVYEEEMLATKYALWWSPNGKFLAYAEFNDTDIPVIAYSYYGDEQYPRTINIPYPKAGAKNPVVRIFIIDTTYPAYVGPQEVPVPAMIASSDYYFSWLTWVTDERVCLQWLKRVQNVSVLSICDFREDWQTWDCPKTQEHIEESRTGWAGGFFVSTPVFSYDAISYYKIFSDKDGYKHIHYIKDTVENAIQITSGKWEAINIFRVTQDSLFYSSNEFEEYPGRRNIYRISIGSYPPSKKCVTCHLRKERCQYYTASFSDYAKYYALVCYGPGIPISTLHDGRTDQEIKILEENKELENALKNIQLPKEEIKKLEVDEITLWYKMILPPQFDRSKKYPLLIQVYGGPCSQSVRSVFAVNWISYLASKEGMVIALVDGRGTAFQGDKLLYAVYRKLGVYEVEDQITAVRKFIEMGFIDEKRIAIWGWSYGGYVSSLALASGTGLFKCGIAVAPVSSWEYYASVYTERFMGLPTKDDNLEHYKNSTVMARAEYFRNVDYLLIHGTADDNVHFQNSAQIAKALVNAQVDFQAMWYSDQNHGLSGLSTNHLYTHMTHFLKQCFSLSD
The test is described as above. Conditions: one partner purified.

B1: NGS2405-Fc (Fc fusion, nurse shark (Ginglymostoma cirratum))
chain: ARVDQTPQTITKETGESLTINCVLRDSNCALSFTYWYRKKSGSTNEESISKGGRYVETVNSGSKSFSLRINDLTVEDSGTYRCNVYVGGGCPHWIDVYGDGTAVTVN
notes: Bivalent human IgG1 Fc fusion (vector TGEX-SCblue); also called VNAR-Fc; source: ExpiCHO-S, transfected, purified (protein A, SEC)
Take B1: the Kd came to 0.356 nM in test [1], 8.44 nM in test [2] and 6.03 nM in test [3].

B2: H4-Fc (Fc fusion, nurse shark (Ginglymostoma cirratum))
chain: ARVDQTPQTITKETGESLTINCVLRDSNCALSSTYWYRKKSGSTNEESISKGGRYVETVNSGSKSFSLRINDLTVEDSGTYRCNVYVAGMSPCLSWGDVYGDGTAVTVN
notes: Bivalent human IgG1 Fc fusion (vector TGEX-SCblue); also called anti-FAP VNAR H4; VNAR-Fc; source: ExpiCHO-S, transfected, purified (protein A, SEC)
Regarding B2, the results for the Kd in test [1], in test [2] and in test [3] were 0.0141 nM, 12 nM and 15.6 nM, respectively.
